Three molecules from PMC11980582, “The human microbiome-derived antimicrobial lugdunin self-regulates its biosynthesis by a feed-forward mechanism” can be followed below.

The test system of series [1] is T1, LugJ (Staphylococcus lugdunensis IVK28), ORF:22db99f4.
T1 sequence: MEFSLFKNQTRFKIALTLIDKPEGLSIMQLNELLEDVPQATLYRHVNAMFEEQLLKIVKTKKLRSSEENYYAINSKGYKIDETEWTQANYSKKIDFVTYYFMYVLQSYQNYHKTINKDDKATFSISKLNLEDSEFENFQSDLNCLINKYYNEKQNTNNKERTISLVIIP
Briefly: EMSA. The following applies: 10 mM Tris/HCl pH 7.4, 10 mM NaCl (LugJ) or 100 mM NaCl (LugR), 0.1 mg/mL BSA, 1 mM DTT, 1 mM EDTA, 10% glycerol, 30 min at 25 C, 20 ul; 5% native PAGE.

Series [2] shares this test system. Briefly: competition. Conditions: 10 mM Tris/HCl pH 7.4, 10 mM NaCl (LugJ) or 100 mM NaCl (LugR), 0.1 mg/mL BSA, 1 mM DTT, 1 mM EDTA, 10% glycerol, 30 min at 25 C, 20 ul; 5% native PAGE.
For a further series, the target named is T2, LugR (Staphylococcus lugdunensis IVK28, UniProt A0A292DID1 1-196).
T2 sequence: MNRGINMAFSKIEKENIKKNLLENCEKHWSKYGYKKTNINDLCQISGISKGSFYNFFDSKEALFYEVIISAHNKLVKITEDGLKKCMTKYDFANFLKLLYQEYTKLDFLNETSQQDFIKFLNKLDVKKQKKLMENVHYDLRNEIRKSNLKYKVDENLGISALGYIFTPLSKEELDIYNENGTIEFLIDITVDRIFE
Description: competition; 2 uM LugR; 50 or 100 ng competitor vs PlugR; 10 mM Tris/HCl pH 7.4, 10 mM NaCl (LugJ) or 100 mM NaCl (LugR), 0.1 mg/mL BSA, 1 mM DTT, 1 mM EDTA, 10% glycerol, 30 min at 25 C, 20 ul; 5% native PAGE. Conditions: protein: recombinant; tags: 8xHis (N-terminal, pET-28a derived); chain copies: 2; label: none; blunt.

For the molecule “ACATAACACCTCACTTTATACATAATAATTGATTTTTAAATAAATGTACAGTAACATTATCATTATCAATAATGATAATGGAGGGTGAAAATG (double strand) [PlugI promoter fragment]”, the binding result in series [1] is “binds”.

For the molecule “ACATAACACCTCACTTTATACATAATAATTGATTTTTAAATAAATGTACAGTAACATTATCATTATCAATAATGATAATGGAGGGTGAAAATG (double strand) [cold PlugI]”, in series [2], the binding entry is recorded as “binds”.

B1: PallugR native (dsDNA)
DNA 1: GATAAAAGTGACTAGAAAAATTTATTTGGTCATAAATGAATAG
DNA 2: CTATTCATTTATGACCAAATAAATTTTTCTAGTCACTTTTATC
On to B1, for which the binding result with LugR is recorded as “binds”.
